Test results reported in the supplement of paper PMC10567573.
± gives the standard deviation.

Experiment: protein stability index of a GFP-peptide fusion (GPS, HEK-293T) (PSI 1-6); higher = more stable
Conditions: c terminus: a fixed tail appended
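Note: 24-mer peptide tiles fused after GFP, lentivirally expressed, FACS-sorted into six equal bins by GFP/DsRed ratio, decoded by Illumina sequencing, PSI is the read-weighted mean bin number.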

Row | Sequence | protein stability index (treatment: DMSO) | protein stability index (treatment: MLN4924 1 uM, 8 h)
1 | AAEYHAQRLKAVIVIQTYYRQWHA [IQUB] | 4.97 ± 0.25 | 4.88 ± 0.32
2 | AAGEQLQQQHVSCQVFPERLAQGN [ATP23] | 4.47 ± 0.15 | 4.5 ± 0.28
3 | AAGVFSNPAVRTAAANAAAGAAEN [SCAMP3] | 5.03 ± 0.1 | 5.06 ± 0.23
4 | AALHIDLCKATSPADALQYLLQFA [INTS4] | 2.36 ± 0.51 | 2.29 ± 0.15
5 | AAPAAKTRKQAAKKVAPLMAKAIR [ELOA2] | 3.78 ± 0.24 | 4.16 ± 0.21
6 | AAPPPLKDDPEGDRDGCVITKVLL [ZBED3] | 3.62 ± 0.27 | 3.62 ± 0.27
7 | AAVVHHFESFPAGSTLIFYKYCDH [TOR1AIP2] | 2.37 ± 0.43 | 2.23 ± 0.52
8 | ADDHRYKFADNKWSVTGKAEPAMP [TBX5] | 4.04 ± 0.17 | 4.2 ± 0.15
9 | ADFKGVLQRPSYKFFFKSMDDDFG [DVL3] | 2.5 ± 0.28 | 2.67 ± 0.11
10 | ADNMEFEQCIKLWLHALHLRQKGN [FEM1B] | 2.56 ± 0.15 | 2.72 ± 0.2
11 | AEKRQIGDQEGPRPARSTLDELLG [FBF1] | 4.64 ± 0.22 | 4.93 ± 0.1
12 | AELLKANEIIKKLQGDLKTLMGKL [SASS6] | 2.36 ± 0.59 | 3.44 ± 0.66
13 | AEREALQARLRDVSRREGALGWAP [ZBED3] | 4.04 ± 0.13 | 3.92 ± 0.17
14 | AESKGTGREKPGPLDFEAYSAAAL [FCHO1] | 4.8 ± 0.12 | 5.04 ± 0.22
15 | AFCNGQKLQVSQQEDITKSLLVTE [IMPA1] | 3.69 ± 0.12 | 3.73 ± 0.27
16 | AFPAAVSSMKKFCRPLLPSCTTRL [PSD2] | 2.33 ± 0.27 | 2.32 ± 0.093
17 | AGGGSQENLDNDTETDSLVSAQRE [DVL3] | 5.32 ± 0.21 | 5.65 ± 0.36
18 | AGNSTSGSRAGASSFSDPFFVVET [KCNA3] | 3.75 ± 0.15 | 3.58 ± 0.27
19 | AIALANSDSMHIEDVEAVQKLQDV [ESRRG] | 4.53 ± 0.092 | 4.66 ± 0.15
20 | AIDMFIIGATFTDWFTSYVKNVVS [FBXO3] | 2.82 ± 0.35 | –
21 | AKIRAKIPGTGALASAAAAVSGSK [RTN2] | 4.3 ± 0.15 | 4.64 ± 0.34
22 | AKVKGEKLDKKLKKMEQNKTAATR [ATF4] | 4.88 ± 0.39 | 4.85 ± 0.16
23 | ALCATDVKFISNPPSMVAAGSVVA [CCND1] | 2.86 ± 0.28 | 3 ± 0.23

Row | Sequence | protein stability index (treatment: DMSO) | protein stability index (treatment: MLN4924 1 uM, 8 h)
24 | ALLLGQGANINAQTEETQETALTL [ANKRD17] | 4.17 ± 0.32 | 4.32 ± 0.27
25 | ALVRLRETEEMLGKKQEYLENRIQ [CHMP4C] | 3.02 ± 0.46 | 3.35 ± 0.2
26 | AMDNHSDSEEELAAFCPQLDDSTV [RETREG3] | 5.34 ± 0.23 | 5.4 ± 0.14
27 | AMETDGPLFEDVQMLRKTVKDEAH [PPP2R5C] | 5.24 ± 0.49 | 5.12 ± 0.39
28 | APTADDDDDDHDDHEDNDKMNDSE [NOL4L] | 5.53 ± 0.2 | 5.54 ± 0.28
29 | APTSTCRTSVGVAVLGGFLYAVGG [KLHL20] | 3.02 ± 0.94 | 2.71 ± 1.2
30 | AQLYTLWVTFQVLLYTSLPDFCHK [DHCR7] | 2.88 ± 0.13 | 3.13 ± 0.18
31 | ARAFAEKNGLSFIETSALDSTNVE [RAB11A] | 4.28 ± 0.41 | 4.24 ± 0.44
32 | ARDCFATGRHYWEVDVQEAGAGWW [TRIM14] | 2.42 ± 0.22 | 2.41 ± 0.3
33 | ARQLQLSDPQTVAGAFGYFQQDTK [LPCAT4] | 3.82 ± 0.41 | 3.9 ± 0.16
34 | ARSIAEQAHELAYDPNYMSPFAQF [PPTC7] | 2.91 ± 0.35 | 3.08 ± 0.27
35 | ASAQKFSSRSTVPTPAKRRSSALW [NET1] | 3.41 ± 0.039 | 3.5 ± 0.33
36 | ASFCVETNNGAGFGLSILWVLLFT [SCAMP3] | 2.86 ± 0.71 | 2.99 ± 0.12
37 | ASLDNGGCALTTFSVLEGEKNNHR [SOAT1] | 4.2 ± 0.31 | 4.34 ± 0.09
38 | ASRTWCFYNTEDIKDWEDRFYLLL [PTGFR] | 2.15 ± 0.6 | 2.46 ± 0.38
39 | ASRVSKVNDKRRKKSGEKEQHISK [KMT2E] | 4.69 ± 0.39 | 4.45 ± 0.38
40 | ASVSDEELKRRVAEELALEQAKKE [CHCHD3] | 5.76 ± 0.25 | 5.45 ± 0.49
41 | ATGLTSGLLSLLLPETLNSPLLET [SLC22A15] | 2.2 ± 0.46 | 2.1 ± 0.23
42 | ATQSHSISSSSFGAEPSAPGGGGS [RTN3] | 5.19 ± 0.23 | 5.19 ± 0.093
43 | ATQTERRLDLAAVTLRRGLRSRAS [FAM189A2] | 4.02 ± 0.24 | 4.41 ± 0.2
44 | ATRSIQVDGKTIKAQIWDTAGQER [RAB11A] | 4.28 ± 0.33 | 4.37 ± 0.19
45 | AVIAQQRRKPDPPKDENERSTCNV [DLC1] | 5.24 ± 0.21 | 5.12 ± 0.19
46 | AVIGNFLYVVGGQSNYDTKGKTAV [KLHL13] | 2.38 ± 0.73 | 2.24 ± 0.67

Row | Sequence | protein stability index (treatment: DMSO) | protein stability index (treatment: MLN4924 1 uM, 8 h)
47 | AVIRWMHSFNFVLSANLHGGAVVA [CPN1] | 2.95 ± 0.71 | 2.88 ± 0.19
48 | AVQKTDEGHPFKAYLELEITLSQE [RTN1] | 2.24 ± 0.24 | 2.56 ± 0.17
49 | AVSESYSAPGACEEPTERGNLEVG [FBXO34] | 5.49 ± 0.12 | 5.57 ± 0.26
50 | AYEFADRDEVRFFKGNKYWAVQGQ [MMP1] | 2.54 ± 0.45 | 2.74 ± 0.61
51 | AYEFNPELVLVSAGFDAARGDPLG [HDAC6] | 3.11 ± 0.58 | 3.58 ± 0.23
52 | CDFKIDAGDRFLEALGFSWHDTCF [PDLIM7] | 2.6 ± 0.5 | 2.47 ± 0.46
53 | CDKYPHESQLPEEWENNRESLIVF [CPXM2] | 3.68 ± 0.11 | 3.44 ± 0.25
54 | CEEQKCEEEVFPLAMNYLDRFLAG [CCND2] | 3.82 ± 0.17 | 4.05 ± 0.28
55 | CETTLFALRMATWNQILDPWVYIL [PTGFR] | 2.89 ± 0.16 | 2.93 ± 0.6
56 | CFSTGLSRRVLLTNVVTGHRQSFG [DCAF4] | 2.1 ± 0.18 | 2.38 ± 0.21
57 | CGVILYILLVGYPPFWDEDQHRLY [CAMK2A] | 2.98 ± 0.6 | 3.24 ± 0.91
58 | CIHDHHCGSQLSSTKGSRSNLSTR [NETO1] | 3.04 ± 0.52 | 3.33 ± 0.37
59 | CKESSPMPVICGPEENYPSLQMSS [NANOGP8] | 3.65 ± 0.27 | 3.74 ± 0.25
60 | CLKKFNARRKLKGAILTTMLATRN [CAMK2A] | 3.21 ± 0.15 | 3.32 ± 0.34
61 | CLVCGDVASGYHYGVASCEACKAF [ESRRA] | 3.96 ± 0.32 | 3.94 ± 0.23
62 | CPRPCRESAFKLSTGTSRWPSAKS [SCNN1D] | 2.7 ± 0.62 | 2.65 ± 0.45
63 | CQEQIEALLESSLRQAQQNMDPKA [CCND1] | 4.85 ± 0.079 | 4.63 ± 0.19
64 | CQMFLGKTEAEIAHIALETLEGHQ [FLOT1] | 3.36 ± 0.43 | 3.37 ± 0.13
65 | CTFSLTHPANRSCRETGSFLDLFR [SLC22A15] | 2.31 ± 0.33 | 2.14 ± 0.45
66 | CVLADRLDCADALLKAGADVNKTD [INVS] | 4.4 ± 0.48 | 4.17 ± 0.42
67 | DAKDELEERLERCMSIVTSMTAGV [INTS3] | 4.13 ± 0.3 | 4.09 ± 0.33
68 | DCCQVSAPNRFFQKLNVFKNFIGL [NLN] | 2.09 ± 0.51 | 2.17 ± 0.21
69 | DDATCRLYDLRADREVAIYSKESI [GNB5] | 3.51 ± 0.24 | 3.4 ± 0.17

Row | Sequence | protein stability index (treatment: DMSO) | protein stability index (treatment: MLN4924 1 uM, 8 h)
70 | DDEGWLHSGDLGQLDGLGFLYVTG [ACSBG2] | 2.66 ± 0.33 | 2.54 ± 0.42
71 | DDGSQDPEVLDRESRDRPSCAPSA [PWWP2B] | 5.43 ± 0.17 | 5.21 ± 0.13
72 | DDKTDKRIFTFICKDSESNKHLCY [GULP1] | 2.47 ± 0.45 | 2.51 ± 0.26
73 | DEIENLLDSDHRELIGDYSKAFLL [CDC25B] | 3.55 ± 0.36 | 3.41 ± 0.53
74 | DERVLENVEHYQELKKMVQQSDLG [ALG2] | 4.95 ± 0.38 | 4.8 ± 0.28
75 | DESQISAEEAEDHGRIPDPDDFVP [FAM189A2] | 5.6 ± 0.2 | 5.61 ± 0.15
76 | DETIGFEDILNDPSQSEVMGEPHL [POMP] | 5.5 ± 0.15 | 5.46 ± 0.086
77 | DFGACDGGLLTGNEKITMQNLNDR [KRT13] | 4.57 ± 0.33 | 4.53 ± 0.37
78 | DGIDRWIKEIDEHAPGVPKILVGN [RAB40B] | 3.68 ± 0.28 | 3.85 ± 0.33
79 | DGNLCLHVPNPPSGISFPSVVDHP [HESX1] | 3.73 ± 0.5 | 3.78 ± 0.15
80 | DGVITASEDRTIRVWLKRDSGQYW [WDFY1] | 2.65 ± 0.65 | 2.76 ± 0.18
81 | DHKPKLCRLAKGENGYGFHLNAIR [PDZK1] | 2.25 ± 0.24 | 2.36 ± 0.56
82 | DICLAQLEELGTLNVFQTVSRMRT [PTPN9] | 2.97 ± 0.22 | 2.79 ± 0.33
83 | DKDRRFVFSYFLATDMISIFEPPV [EFHC1] | 2.38 ± 0.47 | 2.72 ± 0.61
84 | DKLSQKSSSSKLSRSPLKIVKKPK [EPB41L3] | 4.3 ± 0.66 | 4.79 ± 0.23
85 | DKVLRFAQQIRLHHFNSSHLEIDD [MYORG] | 2.93 ± 0.17 | 2.95 ± 0.23
86 | DLKTLSDDIKESLESEGKNSKKEE [ATE1] | 5.31 ± 0.54 | 5.32 ± 0.31
87 | DPELKNLFDMCGISEAQLKDRETS [WASL] | 4.72 ± 0.063 | 4.68 ± 0.21
88 | DPKKLLTQYFVQENYLEYRQVPGS [MAGEA6] | 3.12 ± 0.1 | 3 ± 0.39
89 | DRDSIWKCLKFLGSRHPTLVLPLV [INTS4] | 2.15 ± 0.24 | 2.15 ± 0.22
90 | DSFDKFDFCEPSFVTGNCLEISPD [PCMTD2] | 4.36 ± 0.12 | 4.66 ± 0.46
